Biological target: recombinant protein TCRVB 6-5 (human)
Test: SPR, compared with BJM0277

recombinant protein TCRVB 6-5 (human), sequence (TCR beta, as listed by the source): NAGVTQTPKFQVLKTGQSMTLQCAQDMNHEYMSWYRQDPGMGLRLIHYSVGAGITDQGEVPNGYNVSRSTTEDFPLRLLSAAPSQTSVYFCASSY

fold greater affinity than BJM0277: 35 fold
B1: A-H.45 (bispecific antibody, part only; not given: anti-CD19 arm, constant regions, linkers, not shown: another chain or arm of the molecule; a dimerising Fc or GST; small tags and cut ends)
scFv: QVQLVQSGAEVKKPGSSVKVSCKASGYSFTTYYIHWVRQAPGQGLEWMGWFSAGSGNTKYNEKFKGRVTITADTSTSTAYMELSSLRSEDTAVYYCAVSYYSYDVLDYWGQGTTVTVSSGGGGSGGGGSGGGGSGGGGSDIQMTQSPSFLSASVGDRVTITCKASQNVGINVVWHQQKPGKAPKALIYSSSHRYSGVPSRFSGSGSGTEFTLTISSLQPEDFATYFCQQFKSYPLTFGQGTKLEIK
